Measurements taken from patent publication US20210032320A1.

Columns and labels:
[1] = molecular target: NKp44 isoform 2 (NKp44-2) on NK92-44-2 cells (UniProt O95944); assay: cell-based or functional assay
[2] = molecular target: NKp44 isoform 3 (NKp44-3) on NK92-44-3 cells (UniProt O95944); assay: cell-based or functional assay
[3] = molecular target: NKp44 isoform 1 (NKp44-1) on NK92-44-1 cells (Homo sapiens (Human)) (UniProt O95944); assay: cell-based or functional assay
[4] = molecular target: endogenous cellular PCNA (cell lysates, permeabilised cells, FFPE tissue) (human) (UniProt P12004); assay: image stream of HeLa cells, similarity of the AF488 antibody stain to the 7AAD nuclear stain; 190 of 3950 cells
Sequence of UniProt P12004 (P12004 whole entry): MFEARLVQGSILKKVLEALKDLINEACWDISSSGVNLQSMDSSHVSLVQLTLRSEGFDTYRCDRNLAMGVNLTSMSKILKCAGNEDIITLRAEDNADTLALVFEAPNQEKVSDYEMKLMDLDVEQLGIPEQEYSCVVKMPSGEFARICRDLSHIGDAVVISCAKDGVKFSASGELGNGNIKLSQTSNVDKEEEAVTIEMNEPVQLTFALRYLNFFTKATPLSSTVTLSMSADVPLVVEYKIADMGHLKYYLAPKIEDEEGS

## PCNA over-expressed in HeLa target cells (from UniProt P12004 1-261)
[1]
  relative amount of F-actin accumulating at the immune synapse: 6.9%
[2]
  relative amount of F-actin accumulating at the immune synapse: 4.6%
[3]
  relative amount of F-actin accumulating at the immune synapse: -22.6%

## commercial anti PCNA mAb clone PC10 (antibody)
[4]
  %Gated in the gate 'Cytoplasmic PCNA': 4.81%
